From US20200102402A1 (ZYMEDI, published 2020) come the findings set out here.

In general, Kd refers to the free concentration of one partner at which half of the binding sites on the other are occupied at equilibrium, for simple one-to-one binding. A low value points to a tighter complex. In general, koff refers to a measure of how fast the partners let go of each other. By kon is commonly meant a measure of how fast the partners come together. Low readings indicate slow association, high ones fast association.

The target of one assay is T1, KRS 1-207 aa (human, UniProt Q15046 1-207).
T1 construct: also called KRS N-terminal region (SPR antigen)
T1 sequence (Q15046 1-207): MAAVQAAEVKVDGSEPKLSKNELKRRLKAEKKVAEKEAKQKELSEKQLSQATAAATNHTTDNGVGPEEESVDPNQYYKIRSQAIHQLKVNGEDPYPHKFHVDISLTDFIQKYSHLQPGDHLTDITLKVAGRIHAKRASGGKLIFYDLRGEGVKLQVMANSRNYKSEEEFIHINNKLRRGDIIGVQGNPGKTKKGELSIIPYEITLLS
Description: SPR Biacore 2000, KRS 1-207 immobilised on CM5, antibody 6.25-100 nM as analyte. The method, then:
After KRS was immobilized on a sensor chip (CM5, GE healthcare, US), antibody proteins (6.25-100 nM), which were serially diluted with HES buffer solution (10 mM HEPES, pH 7.4, 150 mM NaCl, 3 mM EDTA, 0.005% surfactant P20), were allowed to flow at a rate of 30 μl/min for 3 min, and 1 M NaCl/20 mM NaOH was allowed to flow at a rate of 30 μl/min for 3 min, thereby inducing the dissociation of proteins bound to the antigen. Mock IgG was used as control. Specific experiment conditions are as follows:
The affinity was obtained from the kinetic rate constants (ka and kd) and equilibrium dissociation constants (KD) by using BIA evaluation ver. 3.2 software.
On the technique in general: In SPR one partner is held on a chip, and binding of the other changes the refractive index at the surface.

Assay [1] has as its target T2, human lysyl-tRNA synthetase (KRS), full-length (human, UniProt Q15046 1-597).
T2 construct: also called native KRS; full-length KRS
Description: Western blot on lysate of A549 cells transformed with full-length KRS (F), probed with the scFv. In general terms: In western blotting, separated proteins are transferred to a membrane and probed.

In assay [2] the target is T3, KRS fragment with deletion of amino acids at positions 1-71 in the N-terminus (human, UniProt Q15046 72-597).
T3 construct: also called fragment 1; denoted by 1
T3 sequence (Q15046 72-597, stated change not applied): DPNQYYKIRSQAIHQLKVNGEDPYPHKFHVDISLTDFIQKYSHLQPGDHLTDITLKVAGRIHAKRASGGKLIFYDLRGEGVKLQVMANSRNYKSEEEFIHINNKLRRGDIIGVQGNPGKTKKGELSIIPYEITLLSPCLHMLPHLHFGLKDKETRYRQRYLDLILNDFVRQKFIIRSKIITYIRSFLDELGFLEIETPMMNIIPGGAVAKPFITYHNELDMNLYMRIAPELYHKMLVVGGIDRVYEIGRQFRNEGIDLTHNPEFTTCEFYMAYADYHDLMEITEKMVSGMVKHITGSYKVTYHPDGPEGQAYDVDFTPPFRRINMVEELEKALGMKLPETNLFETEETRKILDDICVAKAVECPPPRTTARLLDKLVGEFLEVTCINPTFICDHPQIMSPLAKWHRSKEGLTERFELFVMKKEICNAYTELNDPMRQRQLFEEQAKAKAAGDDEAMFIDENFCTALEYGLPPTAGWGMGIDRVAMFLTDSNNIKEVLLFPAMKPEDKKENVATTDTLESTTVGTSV
Description: western blotting of lysate of transformed A549 cells. The method, then:
As described above, the scFv antibodies extracted from the periplasm were used to investigate using western blotting whether the scFv antibodies bound to the full-length KRS or respective KRS N-terminal fragments. Then, 30 μg of HCT116 cell lysate was electrophoresed through SDS PAGE, transferred onto PVDF membrane, and then blocked with 3% skim milk. Thereafter, the extracted scFv antibodies were added at 1.0 μg/μl, followed by incubation for 1 h. The unbound scFv antibodies were washed out, and for detection, the scFv binding with antigens were incubated with anti-HA secondary antibodies linked with horseradish peroxidase (HRP), and film sensitization was carried out using ECL reagent as a substrate in a dark room. The sensitized bands were compared with standard molecule markers to identify bands corresponding to sizes of the full-length KRS and the respective fragments.

Assay [3] concerns the target T4, KRS fragment composed of amino acid residues 1-200 in the N-terminus (human, UniProt Q15046 1-200).
T4 construct: also called fragment 2; denoted by 2
Description: Western blot on lysate of A549 cells transformed with the KRS fragment 1-200 (2), probed with the scFv.

For assay [4], the target named is T5, myc-KRS T52D (active mutant) (human, UniProt Q15046 2-597).
T5 construct: Active mutant whose N-terminal region is exposed on the cell membrane; also called KRS-T52D mutant; T52D-KRS
T5 sequence (Q15046 2-597 T52D): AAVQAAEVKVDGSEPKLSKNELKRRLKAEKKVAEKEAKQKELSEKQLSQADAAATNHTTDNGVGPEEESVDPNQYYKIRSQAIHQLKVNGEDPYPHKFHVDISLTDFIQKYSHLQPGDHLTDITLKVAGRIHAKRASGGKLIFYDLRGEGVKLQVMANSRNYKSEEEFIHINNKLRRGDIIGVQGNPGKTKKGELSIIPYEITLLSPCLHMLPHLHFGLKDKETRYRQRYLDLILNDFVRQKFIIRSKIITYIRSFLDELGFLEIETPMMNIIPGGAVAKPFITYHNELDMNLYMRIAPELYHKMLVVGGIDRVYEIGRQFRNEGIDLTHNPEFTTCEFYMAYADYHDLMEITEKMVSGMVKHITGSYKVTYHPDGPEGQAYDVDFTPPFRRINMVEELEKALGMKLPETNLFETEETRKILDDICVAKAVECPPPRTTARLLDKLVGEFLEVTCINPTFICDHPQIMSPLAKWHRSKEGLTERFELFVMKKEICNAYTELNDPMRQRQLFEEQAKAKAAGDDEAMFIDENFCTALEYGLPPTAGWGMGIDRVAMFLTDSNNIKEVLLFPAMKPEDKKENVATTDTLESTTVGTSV
Description: Immunofluorescence on A549 cells transfected with Myc tagged KRS-T52D, fixed with paraformaldehyde. As for the experimental part:
After incubation for 24 h, the cells were incubated using serum-free media (RPMI 1640 media) at 37° C. for 1 h. Thereafter, the cells were treated with 10 μg/ml laminin (L2020; Sigma) and then incubated at 37° C. for 1 h.
The prepared samples were washed with PBS (4° C.), fixed by the treatment with 4% paraformaldehyde for 10 min, and then washed. The samples were blocked with CAS block for 10 min, and treated with the scFv and Myc antibodies for 2 h. Thereafter, the unbound antibodies were washed out, and incubated with secondary antibodies for 1 h in a dark room. DAPI staining was performed for 10 min before mounting.

T4 sequence (Q15046 1-200): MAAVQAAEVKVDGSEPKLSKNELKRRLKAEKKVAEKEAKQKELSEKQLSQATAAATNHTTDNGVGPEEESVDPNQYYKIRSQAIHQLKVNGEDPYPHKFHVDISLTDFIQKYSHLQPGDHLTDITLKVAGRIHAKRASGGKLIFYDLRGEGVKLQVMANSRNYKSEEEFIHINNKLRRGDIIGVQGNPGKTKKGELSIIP
T2 sequence (Q15046 whole entry): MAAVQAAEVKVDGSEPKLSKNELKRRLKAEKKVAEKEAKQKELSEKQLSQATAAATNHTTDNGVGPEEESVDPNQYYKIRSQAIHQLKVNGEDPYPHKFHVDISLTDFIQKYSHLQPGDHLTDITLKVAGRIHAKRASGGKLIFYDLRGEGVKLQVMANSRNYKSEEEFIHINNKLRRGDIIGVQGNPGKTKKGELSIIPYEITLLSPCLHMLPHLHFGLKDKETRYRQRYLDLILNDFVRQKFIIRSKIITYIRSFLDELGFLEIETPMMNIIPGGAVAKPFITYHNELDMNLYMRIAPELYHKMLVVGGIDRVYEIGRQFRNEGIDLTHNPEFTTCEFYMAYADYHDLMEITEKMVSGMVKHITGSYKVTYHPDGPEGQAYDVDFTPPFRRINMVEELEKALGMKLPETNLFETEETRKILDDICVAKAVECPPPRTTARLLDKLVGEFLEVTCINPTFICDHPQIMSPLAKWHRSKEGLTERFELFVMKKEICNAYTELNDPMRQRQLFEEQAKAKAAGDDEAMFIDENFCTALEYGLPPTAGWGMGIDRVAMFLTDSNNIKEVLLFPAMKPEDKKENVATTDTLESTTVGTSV

B1: N5 IgG (antibody, V domains shown)
VH: EVQLLESGGGLVQPGGSLRLSCAASGFTFSDYAMSWVRQAPGKGLEWVSWIYSGSGNKYYADSVKGRFTISRDNSKNTLYLQMNSLRAEDTAVYYCARMGLDFDYWGQGTLVTVSS
VL: QSVLTQPPSASGTPGQRVTISCTGSSSNIGNNYVSWYQQLPGTAPKLLIYDDNQRPSGVPDRFSGSKSGTSASLAISGLRSEDEADYYCGTWDDSLSAYVFGGGTKLTVL
notes: IgG made from the scFv variable regions
Turning to B1, in the assay with KRS 1-207 aa, the equilibrium dissociation constant (Kd) was determined as 1.05 nM, the off-rate (koff) was 0.00328 s⁻¹ and the kon is 3.13e+06 M⁻¹ s⁻¹.

B2: N5 scFv (scFv)
scFv: EVQLLESGGGLVQPGGSLRLSCAASGFTFSDYAMSWVRQAPGKGLEWVSWIYSGSGNKYYADSVKGRFTISRDNSKNTLYLQMNSLRAEDTAVYYCARMGLDFDYWGQGTLVTVSSGGGGSGGGGSGGGGSQSVLTQPPSASGTPGQRVTISCTGSSSNIGNNYVSWYQQLPGTAPKLLIYDDNQRPSGVPDRFSGSKSGTSASLAISGLRSEDEADYYCGTWDDSLSAYVFGGGTKLTVL
notes: HA-tagged scFv purified on Ni-NTA; also called scFv N5 clone
For B2, the binding result in assay [1] is listed as “binds”; in assay [2] it was “no binding”; in assay [3] it was “binds”; in assay [4] it was “binds”.
